Test results from the nanobody polyreactivity screen of Harvey et al. (2022).

Test: yeast display, Sf9 membrane polyspecificity reagent, FACS + sequencing; frameworks hold sequencing errors
Method in brief: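 Nanobodies from a synthetic yeast display library (Saccharomyces cerevisiae BJ5465), induced 36–48 hours with galactose, were stained 1 hour at 4 °C with 10% biotinylated, detergent-solubilized Sf9 membrane reagent, enriched on streptavidin microbeads, then FACS-sorted. Anti-HA (expression) and streptavidin (reagent binding) fluorescence set low and high (top ~1%) gates. Polyreactivity labels come from the gate of origin. Genes were colony-PCR amplified, MiSeq 2 × 250 sequenced and filtered by CDR length.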

Sequence	polyreactivity (PSR sort gate)
QVQLVESGGGLVQAGGSLRLSCAASGRIFRIYAMGWYRQAPGKERELVASISDRGTRTYYADSVKGRFTISRDNAKNTVYLQMNSLKPEDTAVYYCAASTYTKFHTYYKSQASDYWGQGTQVTVSS	high polyreactivity
QVQLVESGGGLVQAGGSLRLSCAASGFIFQYYAMGWYRQAPGKERELVAAINWSGGSTYYADSVKGRFTISRDNAKNSVYLQMNSLKPEDTAVYYCAADEYTSGYEYWGQGTQVTVSS	high polyreactivity
QVQRVETGGVLVQAGGSLRLSCAASGRIFINDMGWYRQAHGKEMELVAAIRSDGSTNYADSVKGRFTFSRDTAKNTVYLQMNSLKPEDTAVYYCNVDGYYLFVRGYEYWGQGTQVTVSS	low polyreactivity
QVQLVESGGGLVQAGGSLRLICAASGRTFPYNAMGWYRQAPGKERELVAAISSGTRTDYADSVKGRFTISRDNAKNTVYLQMNSLKPEDTAVYYCAADYYHYLWRAYGFDYWGQGTQVTVSS	high polyreactivity
QVQLVESGGGLVQAGGSLRLSCAASGSTFTPYAMGWYRQVPGKERELVASITIGGSTYADSVKGRFTISRDNSKNTVYLQMNSLKPEDTAVYYCNADWNWYPFLYSRMDYWGQGTQVTVSS	low polyreactivity
QVQLVESVGGLVQAGGSLRLSCAASGSTLYQYAMGWYRQAPGKERELVAAITKSGGRTYYADSVKGRFTISRDNAKNTVYLQMNSLKPEDTAVYYCNVVRGSYSSGGDYWGQGTQVTVSS	high polyreactivity
QVQLVESGGGLVQAGGSLRLSCAASGIISGDYAMAWYRQAHGKERELVARITSGDSTNYADSVKGRFTISRDNAKNTVYLQMNSLKPEDTAVYYCAADRVWAYWTYGYWGQGTQVTVSS	low polyreactivity
QVQRVESGGGLVQAGGRLRLSCAASGSIFFSKAMGWYRPAPGKERELVAGIRSGGITNYADSVKGRFTISRDNAKNTVSLQMNSLKPEDTAVYYCAKLKDHGRYAYAFDYWGQGTQVTVSS	low polyreactivity
QVQLVESGGGLVQAGGSLRLSCAASGSILGYYAMGWYRQAPGKERELVADIDNGTSTYYADSVKGRFTISRDNANNTVYLQMISLKPEDTAVYYCADEYYSRYFQSYYWGQGTQVTVSS	low polyreactivity
QVQLVESGGGLVQAGGSLRLSCAASGFTVAIYAMGWYRHAPGKERELVAAINRCGGSTYYADSVKGRFTISRDNAKNSVYLQMNSLKTEDTAVYYCNKRYRVWFDYWGQGTQVTVSS	high polyreactivity
QVQLVESGGGLVQAGCSLRLSCAASGITFVPYAIGWYRQAPGKDRELVAAITGGGSTNYADSVKGRFTISRDNAKNTVYLQMNSLNQEDTAVYYCAKHAYGYYYSRSDYWGQGTQVTVSS	low polyreactivity
QVQLVESGGGLVQAGGSLRLSCAASGRIFNDYTMGWYRPAPGKERELVAAITNRDTSTSYADSVKGRFTISRDNAKNTVYLQMNSLKPEDTAVYYCNAQQVIVVYRPGDYWGQGTQVTVSS	low polyreactivity
QVQLVESGGGLVQAGGSLRLSCAASGSTFSYNAMGWYRQAPGKERELVAAISRRGGGTYYADSVKGRFTISRDKAKNTVSLHMNSLKPVDTAVYYCNADIWYKTYDYWGQGTQVTVSS	low polyreactivity
QVQLVESGGGLVQAGGSLRLSCAASGFTFSPNAMGWYRQAPGKERELVAAISKRGASTYYADSVKGRFTISRDNAKNTVYLQMNSLKPEDTAVYYCNVGASARKPYDYWGQGTQVTVSS	high polyreactivity
QDQLVESGGGLVQAGRSLRLSCAASGYTFRFNAMGWYRQAPGKEREFVAAIDFGGAGTYYADSVKGRFTISRDNAKNTVSLQMNSLKPEDTAVYYCNARDGVTTEFDYWGQGTQVNVSS	low polyreactivity
QVQLVESGGGLVQAGGSLRLSCAASGSIFWGYAMGWYRPAPGKERELVATIRNRGGSTYYADSVKGRFTISRDNAKNTVYLQMNSLKPEDTAVYYCAAVSYRQYYGWGNYWGQGTQVTVSS	low polyreactivity
QVQLVDSGGGLVQAGGSLRLSCAASGGTISSYAMGWYRQAPGKERELVADITRRGGSTYYADSVKGRFTISRDNAKNTVYLQMNSLKPEDTAVYYCAAEWFRQGHRGLDYWGQGTQVTVSS	high polyreactivity
QVQLVETGGGLVQAGGSLRLSCAASGTIFTNYTMGWYRQAPGKERELVASISWSGGRTYYADSVKGRFTISRDNAKNTVYLQMNSLKPEDTAVYYCAAVSRAPGLRYDYWGQGTQVTVSS	high polyreactivity
QVQLVESGGGLVQAGGSLRLSCAASGSICYSYAMGWYRQAPWKEREFVATISDSSGSTYYADSVKGRFTISRDYATNTVYLQMNSLKPEDSAVYYCATTDSYGYYGYGYWGQGTQVTVSS	low polyreactivity
QVQLVESGGGLVQAGGSLRLSCAASGFIFTAYAMGWYRQAPGKERELVAGIRSGSATYYADSVKGRFTISRDNAKNTVYLQMNILKPEDTAVYYCNAEKYNFIYAYEYWGQGTQVTVSS	low polyreactivity
QVQLVESGGGLVQAGGSLRLSCAASGSTFYLYGMGWYRQAPGKERELVAAITYSGGSTYYADSVKGRFTISRDNAKNTVYLQMNSLKPEDTAVYYCNARSQWRSSRFYYWGQGTQVTVPS	high polyreactivity
QVQLVESGGGLVQAGGSLRLSCAASGRIFGLNTMGWYRQAPGKERELVAAITSSAGSTYYADSVKGRFTISRDNAKNTVYLQMNSLKPEDTAVYYCAARVSYLGSFTSQRYYYWGQGTQVTVSS	high polyreactivity

Sequence	polyreactivity (PSR sort gate)
QDHLVESGGGLVQAGGSLRLTCAASGSIFADYTMGWYRQATGKEMELVAAINNRDGGTYYADSVKGRFTISRDNAKNTVYLEMNSLKPEDTAVYYCTKQVDLSGQWDFWYGYYTYDYWGQGTQLTVSS	low polyreactivity
QVQLVESGGGLVQAGGSLRLSCAASGTFSPYAIGWYRQAPGKERELVAVITSNTGRTYADSVKGRFTISRDNAKNTVYLQMNSLKPEDTAVYYCAARSTYRHWYRTGSRFDYWGQGTQVTVSS	low polyreactivity
QVQLVETGGGLVQAGVSLRLSSAASGLTYTQYALGWYRQAPGKERELVAAITSGGRRYYADSVKGRFTISRDNAKNTVYLQMNSLKPEDTAVYYCAVRGWCSARGMDYWGQGTQVTVSS	high polyreactivity
QVQLVESGGGLVQAAGSLRLSCAASGSIFSTYAMGWYRQAPGKERELVAAINRGTSTNYADSVKGRFTISRDNAKNTVYLQMNSLKPEDTAVYYCAAYYRGRYGPRRSEYWGQGTQVTVSS	high polyreactivity
QVQLVESGGGLVQAGGSLRLSCASSGNIFYLYAKGWYRQARGKERELVAAIRGSGSTYYADSVKGRFTISRDNAKNTVYLQMNSLKPEDTAVYYCNARVRSQYLYSGTALGYYYWGQGTQVTVSS	high polyreactivity
QVQLVESGGGLVQAGGSLRLSCAASGRIFWTYAMGWYRHAPGKERELVAVISIGGTTYYADTVKGRFTISRDNAKNTVYLQMNSLKPEDTAVYYSAAPPSNATGFLSYDYWGQGTQVTVSS	low polyreactivity
QVQLVESGGGLVQAGGSLRLSCAASGNIFVYYAMGWYRQAPGKERELVASITTSGGSTYYADSVKGRFTISRDNAKNTVYLQMNSLKPEDTAVYYCAALYYYWMDYWGQGTQVTVSS	low polyreactivity
QVQLVETGGGLVQAGGSLRLSSAASGITSNSYAMGWYRQAPGKERELVATITSGGSTNYADSVKGRFTITLDNAKNSVYLQMNSLKPEDTAVYYCNREYWLPTQYDYWGQGTQVTVSS	low polyreactivity
QVQLVESGGGLVHAGGSHRLSCAASGLIFYDNMGWYRQAPGKERELVAAISSSGGSTSYADSVKGRFTISRDNAKNTVYLQMNSLKPEDTAVYYCAADSYPAYLGFVGFDYWGQGTQVTVSS	low polyreactivity
QVQLVESGGGLVQAGGSLRLSCAPSGIIFYGNAMGWYRPAPGKERELVAAITRSGVRTYYADSVKGRFTISRDNAKKTGYLQMNSLNPEDSAVSYCAAVKPVSSRHYPYDYWGQGTQVTVSS	high polyreactivity
QVQLVESGGGLVQAGGSLRLSCAASGSIFRRYAMGWYRQAPGKEREFVAAITRSGGGTYYADSVKGRFTLSRDNAKNTVYLQMNSLIPEDTAVYYCAKDVFVQRSRYPEGDYWGQGTQVTVSS	high polyreactivity
QVQLVESGGGLVQAGGSLRLSCAASGRTVGSYVMGWYRHAPVKERELVATISRRGGTTYYADSVKARFTISRDNAKNTVYLQMNSLKPEDTAVYYCNRVIPLASYGYGYWGQGTQVTVSS	high polyreactivity
QVQLVESGGGLDQARGTLRLSCAASGITITLYAMGWYRQTPGKESELVAAISRGGGTTNYADSVKGRFTISRDNAKNTVFLELNSLKPEDNAVYYCAAAYTIYWFSYRVLYYYWGQGTQVTVSS	low polyreactivity
QVQRVESGGGLVQAGGSLRLSCAASGIIFALYAMGWYRQAPGKERELVAAISTSGGRTYYADSVKGRFTISRDNAKNTVYFQMNSLKPEDTAVYYCAAGYPYWYHSRLAFDYWGQGTQVTVSS	high polyreactivity
QVQLVESGGGLVQAGCSLRLSCAASGFIFLTNGMGWYRQAPGTERELVAVITSSTGSTSYADSVKGRFTISRDIAKNTVYLQMNSLKPEDTAVYYCDDSTGVSWYYPSGSLDYWGQGTQVNVSS	low polyreactivity
QVQLVESGGGLVQAGGSLRLSCAASGITFDNNAMGWYRQAPGKEREFVADIDGSGGSTYYADSVKGRFTISRDNAKNTVYLQMNSLKPEDTAVYYCNAGYVHSFDYWGQGTQVTVSS	low polyreactivity
QVQLVESGGGLVQAGGSLRLSCAASGRIFVPNAMGWYRQAPGKERELVAAITRSGSTYYADSVKGRFTISRDNAKNTVYLQMNSLKPEDTAVYYCNAASRRFPGKVWDYHYWGQGTQVTVSS	low polyreactivity
QVQLVESGGGLVQAGGSLRLSCAASGSTFLYYAMGWYRQAPGKERELVAVISWSCVSTYYADSVKGRFTISRDNAKYTVYLQMNSLKPEDTAVSYCAADWDWRFHRMNYWGQGTQVTVSS	low polyreactivity
QVQLVESGGGLVQAGGSLRLSCAASGFIYYSYTMGWYRQAPGKERELVATISSNGGRTYYADSVKGRYTISRDNAKNTVYLQMNSLKPEDTAVYYCATDVPHGYYWSYGDYYWGQRTQVTVSS	low polyreactivity
QVLLVESGGGLVQAGGSLRLSCAASGFIFFKYAMGWYRQAPGKEREFVAAISKSGTSTYYADSVKGRFTISRDNAKNTVYLQLNILKPEDTAVYDCAARYGRGSAYPEYDYWGQGTQVTVSS	high polyreactivity
QVQLVESGGGLVQAGGSLRLSCAASGSIFTIYAMGWYRQAPGKERELVAAISFSGGSTYYADSVKGRFTISRDNAKNSVYLQMNSLKPEDTAVYYCAADGGFTYDYWGQGTQVTVSS	low polyreactivity
